The supplement of paper PMC5998384

Assays:
HeLa Kyoto [1] = experiment: solubility in G1/S (NP-40 vs SDS abundance) (log2 ratio); higher = more soluble; settings: cell cycle stage: G1/S
HeLa Kyoto [2] = experiment: melting temperature (median over replicates), in situ; higher = more thermally stable
HeLa Kyoto [3] = experiment: solubility change mitosis vs G1/S (difference of NP-40 vs SDS log2 ratios) (log2 ratio difference); higher = more soluble in mitosis
HeLa Kyoto [4] = experiment: thermal stability score vs G1/S (z-score of summed log2 fold changes over temperatures); higher = more thermally stable than in G1/S
[5] = cell cycle stage: early G1 (4.5 h after nocodazole release)
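For melting temperature (median over replicates), in situ in this document: HeLa Kyoto cells synchronized by double thymidine or nocodazole block, proteins quantified by TMT10plex mass spectrometry, three independent biological replicates.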
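For solubility change mitosis vs G1/S (difference of NP-40 vs SDS log2 ratios) in this document: synchronized HeLa Kyoto cells (double thymidine block for G1/S, nocodazole release for mitosis), protein amounts in NP-40 versus SDS lysates quantified by mass spectrometry, three biological replicates.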
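For solubility in G1/S (NP-40 vs SDS abundance) in this document: HeLa Kyoto cells arrested at G1/S by double thymidine block, proteins quantified by TMT10plex mass spectrometry in mild NP-40 versus SDS extracts, three biological replicates.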
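For thermal stability score vs G1/S (z-score of summed log2 fold changes over temperatures) in this document: synchronized HeLa Kyoto cells, proteins quantified by TMT10plex mass spectrometry, three biological replicates, mitosis taken 0.5 h after nocodazole release, G1/S directly after double thymidine block.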

## MKSLKAKFRKSDTNEWNKNDDRLLQAVENGDAEKVASLLGKKGASATKHDSEGKTAFHLAAAKGHVECLRVMITHGVDVTAQDTTGHSALHLAAKNSHHECIRKLLQSKCPAESVDSSGKTALHYAAAQGCLQAVQILCEHKSPINLKDLDGNIPLLLAVQNGHSEICHFLLDHGADVNSRNKSGRTALMLACEIGSSNAVEALIKKGADLNLVDSLGYNALHYSKLSENAGIQSLLLSKISQDADLKTPTKPKQHDQVSKISSERSGTPKKRKAPPPPISPTQLSDVSSPRSITSTPLSGKESVFFAEPPFKAEISSIRENKDRLSDSTTGADSLLDISSEADQQDLLSLLQAKVASLTLHNKELQDKLQAKSPKEAEADLSFDSYHSTQTDLGPSLGKPGETSPPDSKSSPSVLIHSLGKSTTDNDVRIQQLQEILQDLQKRLESSEAERKQLQVELQSRRAELVCLNNTEISENSSDLSQKLKETQSKYEEAMKEVLSVQKQMKLGLVSPESMDNYSHFHELRVTEEEINVLKQDLQNALEESERNKEKVRELEEKLVEREKGTVIKPPVEEYEEMKSSYCSVIENMNKEKAFLFEKYQEAQEEIMKLKDTLKSQMTQEASDEAEDMKEAMNRMIDELNKQVSELSQLYKEAQAELEDYRKRKSLEDVTAEYIHKAEHEKLMQLTNVSRAKAEDALSEMKSQYSKVLNELTQLKQLVDAQKENSVSITEHLQVITTLRTAAKEMEEKISNLKEHLASKEVEVAKLEKQLLEEKAAMTDAMVPRSSYEKLQSSLESEVSVLASKLKESVKEKEKVHSEVVQIRSEVSQVKREKENIQTLLKSKEQEVNELLQKFQQAQEELAEMKRYAESSSKLEEDKDKKINEMSKEVTKLKEALNSLSQLSYSTSSSKRQSQQLEALQQQVKQLQNQLAECKKQHQEVISVYRMHLLYAVQGQMDEDVQKVLKQILTMCKNQSQKK [RAI14]
HeLa Kyoto [1]
  solubility in G1/S (log2): -0.263
HeLa Kyoto [2]; cell cycle stage: G1/S
  melting temperature: 49.7 °C
HeLa Kyoto [2]; cell cycle stage: mitosis
  melting temperature: 50 °C
HeLa Kyoto [3]
  solubility change mitosis (log2): 0.267
HeLa Kyoto [4]; [5]
  thermal stability score: 0.622
HeLa Kyoto [4]; cell cycle stage: mitosis
  thermal stability score: 0.688

## MAMQAAKRANIRLPPEVNRILYIRNLPYKITAEEMYDIFGKYGPIRQIRVGNTPETRGTAYVVYEDIFDAKNACDHLSGFNVCNRYLVVLYYNANRAFQKMDTKKKEEQLKLLKEKYGINTDPPK [SF3B6]
HeLa Kyoto [1]
  solubility in G1/S (log2): -0.381
HeLa Kyoto [2]; cell cycle stage: G1/S
  melting temperature: 51.1 °C
HeLa Kyoto [2]; cell cycle stage: mitosis
  melting temperature: 51.2 °C
HeLa Kyoto [3]
  solubility change mitosis (log2): 0.618
HeLa Kyoto [4]; [5]
  thermal stability score: -2.41
HeLa Kyoto [4]; cell cycle stage: mitosis
  thermal stability score: -2.34

## MTSEVIEDEKQFYSKAKTYWKQIPPTVDGMLGGYGHISSIDINSSRKFLQRFLREGPNKTGTSCALDCGAGIGRITKRLLLPLFREVDMVDITEDFLVQAKTYLGEEGKRVRNYFCCGLQDFTPEPDSYDVIWIQWVIGHLTDQHLAEFLRRCKGSLRPNGIIVIKDNMAQEGVILDDVDSSVCRDLDVVRRIICSAGLSLLAEERQENLPDEIYHVYSFALR [NTMT1]
HeLa Kyoto [1]
  solubility in G1/S (log2): 0.238
HeLa Kyoto [2]; cell cycle stage: G1/S
  melting temperature: 49.9 °C
HeLa Kyoto [2]; cell cycle stage: mitosis
  melting temperature: 51.2 °C
HeLa Kyoto [3]
  solubility change mitosis (log2): -0.15
HeLa Kyoto [4]; [5]
  thermal stability score: 1.31
HeLa Kyoto [4]; cell cycle stage: mitosis
  thermal stability score: 1.61

## MDTDLYDEFGNYIGPELDSDEDDDELGRETKDLDEMDDDDDDDDVGDHDDDHPGMEVVLHEDKKYYPTAEEVYGPEVETIVQEEDTQPLTEPIIKPVKTKKFTLMEQTLPVTVYEMDFLADLMDNSELIRNVTLCGHLHHGKTCFVDCLIEQTHPEIRKRYDQDLCYTDILFTEQERGVGIKSTPVTVVLPDTKGKSYLFNIMDTPGHVNFSDEVTAGLRISDGVVLFIDAAEGVMLNTERLIKHAVQERLAVTVCINKIDRLILELKLPPTDAYYKLRHIVDEVNGLISMYSTDENLILSPLLGNVCFSSSQYSICFTLGSFAKIYADTFGDINYQEFAKRLWGDIYFNPKTRKFTKKAPTSSSQRSFVEFILEPLYKILAQVVGDVDTSLPRTLDELGIHLTKEELKLNIRPLLRLVCKKFFGEFTGFVDMCVQHIPSPKVGAKPKIEHTYTGGVDSDLGEAMSDCDPDGPLMCHTTKMYSTDDGVQFHAFGRVLSGTIHAGQPVKVLGENYTLEDEEDSQICTVGRLWISVARYHIEVNRVPAGNWVLIEGVDQPIVKTATITEPRGNEEAQIFRPLKFNTTSVIKIAVEPVNPSELPKMLDGLRKVNKSYPSLTTKVEESGEHVILGTGELYLDCVMHDLRKMYSEIDIKVADPVVTFCETVVETSSLKCFAETPNKKNKITMIAEPLEKGLAEDIENEVVQITWNRKKLGEFFQTKYDWDLLAARSIWAFGPDATGPNILVDDTLPSEVDKALLGSVKDSIVQGFQWGTREGPLCDELIRNVKFKILDAVVAQEPLHRGGGQIIPTARRVVYSAFLMATPRLMEPYYFVEVQAPADCVSAVYTVLARRRGHVTQDAPIPGSPLYTIKAFIPAIDSFGFETDLRTHTQGQAFSLSVFHHWQIVPGDPLDKSIVIRPLEPQPAPHLAREFMIKTRRRKGLSEDVSISKFFDDPMLLELAKQDVVLNYPM [EFTUD2]
HeLa Kyoto [1]
  solubility in G1/S (log2): -0.443
HeLa Kyoto [2]; cell cycle stage: G1/S
  melting temperature: 57.4 °C
HeLa Kyoto [2]; cell cycle stage: mitosis
  melting temperature: 56.2 °C
HeLa Kyoto [3]
  solubility change mitosis (log2): 0.215
HeLa Kyoto [4]; [5]
  thermal stability score: -1.97
HeLa Kyoto [4]; cell cycle stage: mitosis
  thermal stability score: -2.33

## MGAQLSTLGHMVLFPVWFLYSLLMKLFQRSTPAITLESPDIKYPLRLIDREIISHDTRRFRFALPSPQHILGLPVGQHIYLSARIDGNLVVRPYTPISSDDDKGFVDLVIKVYFKDTHPKFPAGGKMSQYLESMQIGDTIEFRGPSGLLVYQGKGKFAIRPDKKSNPIIRTVKSVGMIAGGTGITPMLQVIRAIMKDPDDHTVCHLLFANQTEKDILLRPELEELRNKHSARFKLWYTLDRAPEAWDYGQGFVNEEMIRDHLPPPEEEPLVLMCGPPPMIQYACLPNLDHVGHPTERCFVF [CYB5R3]
HeLa Kyoto [1]
  solubility in G1/S (log2): -0.215
HeLa Kyoto [2]; cell cycle stage: G1/S
  melting temperature: 56 °C
HeLa Kyoto [2]; cell cycle stage: mitosis
  melting temperature: 55.8 °C
HeLa Kyoto [3]
  solubility change mitosis (log2): -0.158
HeLa Kyoto [4]; [5]
  thermal stability score: -1.92
HeLa Kyoto [4]; cell cycle stage: mitosis
  thermal stability score: -2.76

## MAAAAASAPQQLSDEELFSQLRRYGLSPGPVTESTRPVYLKKLKKLREEEQQQHRSGGRGNKTRNSNNNNTAAATVAAAGPAAAAAAGMGVRPVSGDLSYLRTPGGLCRISASGPESLLGGPGGASAAPAAGSKVLLGFSSDESDVEASPRDQAGGGGRKDRASLQYRGLKAPPAPLAASEVTNSNSAERRKPHSWWGARRPAGPELQTPPGKDGAVEDEEGEGEDGEERDPETEEPLWASRTVNGSRLVPYSCRENYSDSEEEDDDDVASSRQVLKDDSLSRHRPRRTHSKPLPPLTAKSAGGRLETSVQGGGGLAMNDRAAAAGSLDRSRNLEEAAAAEQGGGCDQVDSSPVPRYRVNAKKLTPLLPPPLTDMDSTLDSSTGSLLKTNNHIGGGAFSVDSPRIYSNSLPPSAAVAASSSLRINHANHTGSNHTYLKNTYNKPKLSEPEEELLQQFKREEVSPTGSFSAHYLSMFLLTAACLFFLILGLTYLGMRGTGVSEDGELSIENPFGETFGKIQESEKTLMMNTLYKLHDRLAQLAGDHECGSSSQRTLSVQEAAAYLKDLGPEYEGIFNTSLQWILENGKDVGIRCVGFGPEEELTNITDVQFLQSTRPLMSFWCRFRRAFVTVTHRLLLLCLGVVMVCVVLRYMKYRWTKEEEETRQMYDMVVKIIDVLRSHNEACQENKDLQPYMPIPHVRDSLIQPHDRKKMKKVWDRAVDFLAANESRVRTETRRIGGADFLVWRWIQPSASCDKILVIPSKVWQGQAFHLDRRNSPPNSLTPCLKIRNMFDPVMEIGDQWHLAIQEAILEKCSDNDGIVHIAVDKNSREGCVYVKCLSPEYAGKAFKALHGSWFDGKLVTVKYLRLDRYHHRFPQALTSNTPLKPSNKHMNSMSHLRLRTGLTNSQGSS [LEMD3]
HeLa Kyoto [1]
  solubility in G1/S (log2): 0.0762
HeLa Kyoto [2]; cell cycle stage: G1/S
  melting temperature: 49.1 °C
HeLa Kyoto [2]; cell cycle stage: mitosis
  melting temperature: 50.5 °C
HeLa Kyoto [3]
  solubility change mitosis (log2): -0.0382
HeLa Kyoto [4]; [5]
  thermal stability score: 2.33
HeLa Kyoto [4]; cell cycle stage: mitosis
  thermal stability score: 3.33

## UBR1
HeLa Kyoto [1]
  solubility in G1/S (log2): -0.252
HeLa Kyoto [2]; cell cycle stage: G1/S
  melting temperature: 48.6 °C
HeLa Kyoto [2]; cell cycle stage: mitosis
  melting temperature: 50.3 °C
HeLa Kyoto [3]
  solubility change mitosis (log2): -0.26
HeLa Kyoto [4]; [5]
  thermal stability score: 0.878
HeLa Kyoto [4]; cell cycle stage: mitosis
  thermal stability score: 1.16

## MAITLEEAPWLGWLLVKALMRFAFMVVNNLVAIPSYICYVIILQPLRVLDSKRFWYIEGIMYKWLLGMVASWGWYAGYTVMEWGEDIKAVSKDEAVMLVNHQATGDVCTLMMCLQDKGLVVAQMMWLMDHIFKYTNFGIVSLVHGDFFIRQGRSYRDQQLLLLKKHLENNYRSRDRKWIVLFPEGGFLRKRRETSQAFAKKNNLPFLTNVTLPRSGATKIILNALVAQQKNGSPAGGDAKELDSKSKGLQWIIDTTIAYPKAEPIDIQTWILGYRKPTVTHVHYRIFPIKDVPLETDDLTTWLYQRFVEKEDLLSHFYETGAFPPSKGHKEAVSREMTLSNLWIFLIQSFAFLSGYMWYNIIQYFYHCLF [LPGAT1]
HeLa Kyoto [1]
  solubility in G1/S (log2): -0.142
HeLa Kyoto [2]; cell cycle stage: G1/S
  melting temperature: 51.1 °C
HeLa Kyoto [2]; cell cycle stage: mitosis
  melting temperature: 51.3 °C
HeLa Kyoto [3]
  solubility change mitosis (log2): -0.152
HeLa Kyoto [4]; [5]
  thermal stability score: 0.187
HeLa Kyoto [4]; cell cycle stage: mitosis
  thermal stability score: -0.757
